From patent US12258584B2, “Methods and systems for converting precursor cells into intestinal tissues through directed differentiation” (Children's Hospital Medical Center, priority 2010, dated 2025)

B1: Noggin: the BMP antagonist Noggin (R&D Systems) (protein, UniProt Q13253 28-232, looked up)
Noggin: QHYLHIRPAPSDNLPLVDLIEHPDPIFDPKEKDLNETLLRSLLGGHYDPGFMATSPPEDRPGGGGGAAGGAEDLAELDQLLRQRPSGAMPSEIKGLEFSEGLAQGKKQRLSKKLRRKLQMWLWSQTFCPVLYAWNDLGSRFWPRYVKVGSCFSKRSCSVPEGMVCKPSKSVHLTVLRWRCQRRGGQRCGWIPIQYPIISECKCSC
B2: ActivinA: nodal-related TGFβ molecule (R&D systems) used to differentiate PSCs into definitive endoderm (protein, UniProt P08476 311-426, looked up)
Inhibin beta A chain: GLECDGKVNICCKKQFFVSFKDIGWNDWIIAPSGYHANYCEGECPSHIAGTSGSSLSFHSTVINHYRMRGHSPFANLKSCCVPTKLRPMSMLYYDDGQNIIKKDIQNMIVEECGCS

What was measured:
[1] = system: definitive endoderm from human embryonic and induced pluripotent stem cells; test: Foregut/hindgut patterning of definitive endoderm by WNT, FGF, BMP and RA signaling (Cdx2, Sox2, HHex, Cerberus expression); assay type: cell-based
Procedure: Following definitive endoderm (DE) induction with activin (100 ng/ml) for 3 days, a 2-4 day treatment was performed with the indicated combination of factors: Wnt3a (500 ng/ml) and Fgf4 (500 ng/ml), Retinoic acid (RA) in a range of 0.2-20 μM the BMP antagonist Noggin (50 ng/ml), the WNT antagonist […] (1-500 ng/ml).
In particular, FIGS. 14B and 14D depict the activation of FGF/WNT/BMP signaling promotes posterior/hindgut fate as indicated by expression of Cdx2. […] Activation of FGF/WNT/BMP signaling represses foregut fate as indicated by expression of Sox2 (FIG. 14C).
The effects of Retinoic Acid in promoting hindgut differentiation in a BMP dependent manner (FIGS. 15A-15D). […] Similar comparison was also performed by immunostaining (FIGS. 15C and 15D). Activation of RA signaling promotes posterior/hindgut fate as indicated by expression of Cdx2 and represses foregut fate as indicated by expression of Sox2. Immunostaining in FIG. 15C is quantified in FIG. 15D using an automated cell counting program.

intestinal organoids = test: Intestinal regionalization of hindgut spheroids in 3D matrigel culture with BMP or noggin; assay type: cell-based, human; details: added after the hindgut stage to EGF/Rspondid1 containing media; organoids analyzed after 28 days
Procedure: For investigating the impact of BMP signaling on intestinal regionalization after hindgut formation, hindgut spheroids were plated in matrigel and BMP or noggin were added to EGF/Rspondid1 containing media. Intestinal organoids were analyzed after 28 days.

hESCs and iPSCs = test: Definitive endoderm induction, SOX17/FOXA2 immunofluorescence; assay type: cell-based, human; details: ActivinA 100 ng/ml for 3 days
Procedure: Differentiation of PSCs into Definitive Endoderm (DE). Differentiation into Definitive Endoderm was carried out as previously described. Briefly, a 3 day ActivinA (R&D systems) differentiation protocol was used. Cells were treated with ActivinA (100 ng/ml) for three consecutive days in RPMI 1640 media (Invitrogen) with increasing concentrations of 0%, 0.2%, 2% HyClone defined FBS (dFBS) (Thermo Scientific).
Directing Hindgut Development of PSCs. As a first step to generating intestinal tissue, nodal-related TGFβ molecule activinA was used to promote differentiation of PSCs into DE as previously published. […]
FIGS. 6a and 6b illustrate exemplary embodiments in accordance with the present invention, depicting characterization of DE formation from hESC and iPSC lines by immuno-fluorescence (IF) and Microarray analysis. […] (b) Transcriptional profile of DE induction. hESC-H9 and iPSC lines 3.5, 3.6 and 3.12 were analyzed before and after DE formation (activin differentiation) by Affymetrix DNA microarray analysis.
Tissues were fixed for 1 hour to overnight in 4% paraformaldehyde or 3% glutaraldehyde for transmission electron microscopy (TEM). […] Slides were washed and mounted using Fluormount-G. Confocal images were captured on a Zeiss LSM510 and Z-stacks were analyzed and assembled using AxioVision software. […]

[2] = system: H9-HES cells differentiated into definitive endoderm; test: Posteriorization of definitive endoderm: foregut (ALB, PDX1) and hindgut (CDX2) marker expression by RT-qPCR and immunofluorescence; assay type: cell-based, human
Procedure: Differentiation of DE in Permissive Media (Differentiation Protocol for FIG. 1). After differentiation into definitive endoderm, cells were incubated in DMEM/F12 plus 2% defined fetal bovine serum (dFBS) with either 0, 50, or 500 ng/ml of FGF4 and/or 0, 50, or 500 ng/ml of Wnt3a (R&D Systems) for 6, 48, or 96 hours. Cultures were then grown in permissive media consisting of DMEM plus 10% fetal bovine serum (FBS) for an additional 7 days.
FIGS. 1a through 1d illustrate exemplary embodiments of the present invention. FGF4 and Wnt3a act synergistically in a temporal and dose-dependent manner to specify stable posterior endoderm fate. ActivinA (100 ng/ml) was used to differentiate H9-HES cells into definitive endoderm (DE). DE was treated with the posteriorizing factors FGF4 (50, 500 ng), Wnt3a (50, 500 ng) or both for 6, 48 or 96 hours. Cells were then cultured in a permissive medium without growth factors for an additional seven days and analyzed for expression of foregut markers (ALB, PDX1) and the hindgut marker (CDX2) by RT-qPCR (a) and immunofluorescence (b-d). FGF4/Wnt-mediated changes in marker expression in (a) is relative to 3-day activin treated DE cultures that were grown for identical lengths of time in the absence of FGF4 or Wnt3a (control). […] Error bars denote standard deviation of triplicates. Significance is shown by; * (p<0.05), ^ (p<0.001), # (p<0.0001).
FIGS. 7a and 7b illustrate exemplary embodiments in accordance with the present invention, depicting time and concentration dependent induction of CDX2 by FGF4 and Wnt3a. (a) FGF4 and Wnt3a up-regulate CDX2 in a concentration dependant manner. 3-day ActivinA treated hESCs were treated for 48 hours with Wnt3a at 50 ng/ml or 500 ng/ml or FGF4 at 50 ng/ml or 500 ng/ml, or increasing concentrations of FGF4+Wnt3a. Cells were analyzed after 48 hours of treatment. […] CDX2 expression was normalized to the internal control beta-tubulin, and is shown relative to a 48 hour control cultured in the absence of growth factors. (b) FGF4 and Wnt3a up-regulate CDX2 in a time dependant manner. 48 hours of exposure to FGF4+Wnt3a was required for the most robust induction of CDX2. All time points shown are set relative to a 0 hour no growth factor control. 500 ng/ml of FGF4, Wnt3a or FGF4+Wnt3a was used for all time points. Note that 24 hour and 48 controls, in the absence of growth factors, show a significant and spontaneous up-regulation of CDX2. Error bars denote standard deviation of triplicates. Significance is shown by; * (p<0.05)
RNA was isolated using the Nucleospin II RNA isolation kit (Clonetech). […] Finally, qPCR was carried out using Quantitect SybrGreen MasterMix (Qiagen) on a Chromo4 Real-Time PCR (BioRad). […]

| Molecule | Wnt/Fgf-induced Cdx2 expression ([1]; Noggin 50 ng/ml with Wnt3a 500 ng/ml and Fgf4 500 ng/ml, 2-4 day treatment after DE induction) | Retinoic acid (RA)-induced posteriorization, Cdx2 expression ([1]; addition of Noggin to Retinoic acid treatment) | hindgut and foregut fate (Cdx2, Sox2 expression) ([1]; repression of BMP signaling with noggin) | regional intestinal fate (intestinal organoids) | cells co-expressing the DE markers SOX17 and FOXA2 (hESCs and iPSCs) | cells co-expressing the DE markers SOX17 and FOXA2 (hESCs and iPSCs; listed as Activin) | competence of DE cultures to form foregut and hindgut lineages ([2]; activinA for only 3-days, then seven days in permissive conditions) | competence of DE cultures to form foregut and hindgut lineages ([2]; prolonged activin treatment for 4-5 days) |
| --- | --- | --- | --- | --- | --- | --- | --- | --- |
| B1 | completely abolishes the Wnt/Fgf-induced Cdx2 expression | potently inhibits Cdx2 expression | suppresses hindgut fate and promotes foregut fate | promotes a proximal intestinal fate (duodenum/jejunum) | – | – | – | – |
| B2 | – | – | – | – | 80-90% | up to 90% | competent to develop into both foregut (Albumin+ and Pdx1+) and hindgut (Cdx2) lineages | intrinsically anterior in character and not as competent to form posterior lineages |
